{"source": "paper doi:10.1101/2024.03.15.585201", "about": "(bioRxiv, 2024)", "proteins": {"B1": {"name": "BmrA E504A mutant (natural protein)", "chain": "MPTKKQKSKSKLKPFFALVRRTNPSYGKLAFALALSVVTTLVSLLIPLLTKQLVDGFSMSNLSGTQIGLIALVFFVQAGLSAYATYALNYNGQKIISGLRELLWKKLIKLPVSYFDTNASGETVSRVTNDTMVVKELITTHISGFITGIISVIGSLTILFIMNWKLTLLVLVVVPLAALILVPIGRKMFSISRETQDETARFTGLLNQILPEIRLVKASNAEDVEYGRGKMGISSLFKLGVREAKVQSLVGPLISLVLMAALVAVIGYGGMQVSSGELTAGALVAFILYLFQIIMPMGQITTFFTQLQKSIGATERMIEILAEEEEDTVTGKQIENAHLPIQLDRVSFGYKPDQLILKEVSAVIEAGKVTAIVGPSGGGKTTLFKLLERFYSPTAGTIRLGDEPVDTYSLESWREHIGYVSQESPLMSGTIRENICYGLERDVTDAEIEKAAEMAYALNFIKELPNQFDTEVGERGIMLSGGQRQRIAIARALLRNPSILMLDAATSSLDSQSEKSVQQALEVLMEGRTTIVIAHRLSTVVDADQLLFVEKGEITGRGTHHELMASHGLYRDFAEQQLKMNADLENKAG"}}, "biological_target": "the molecule itself", "assay": "cryo-EM structure"}
{"protein": "B1", "values": [{"measurement": "stoichiometry N", "value": 2}]}
